From patent publication US20230021388A1 (VELOSBIO, published 2023)

B1: Ab1 Fab variant H1 A30P (Fab, V domains shown)
VH: QVQLQESGPGLVKPSQTLSLTCTVSGYPFTAYNIHWVRQAPGQGLEWMGSFDPYDGGSSYNQKFKDRLTISKDTSKNQVVLTMTNMDPVDTATYYCARGWYYFDYWGHGTLVTVSS
VL: DIVMTQTPLSLPVTPGEPASISCRASKSISKYLAWYQQKPGQAPRLLIYSGSTLQSGIPPRFSGSGYGTDFTLTINNIESEDAAYYFCQQHDESPYTFGEGTKVEIK
notes: Fab
B2: Ab1 Fab variant H1 N40P (Fab, V domains shown)
VH: QVQLQESGPGLVKPSQTLSLTCTVSGYAFTAYPIHWVRQAPGQGLEWMGSFDPYDGGSSYNQKFKDRLTISKDTSKNQVVLTMTNMDPVDTATYYCARGWYYFDYWGHGTLVTVSS
VL: DIVMTQTPLSLPVTPGEPASISCRASKSISKYLAWYQQKPGQAPRLLIYSGSTLQSGIPPRFSGSGYGTDFTLTINNIESEDAAYYFCQQHDESPYTFGEGTKVEIK
notes: Fab
B3: Ab1 Fab variant H1 Y39F (Fab, V domains shown)
VH: QVQLQESGPGLVKPSQTLSLTCTVSGYAFTAFNIHWVRQAPGQGLEWMGSFDPYDGGSSYNQKFKDRLTISKDTSKNQVVLTMTNMDPVDTATYYCARGWYYFDYWGHGTLVTVSS
VL: DIVMTQTPLSLPVTPGEPASISCRASKSISKYLAWYQQKPGQAPRLLIYSGSTLQSGIPPRFSGSGYGTDFTLTINNIESEDAAYYFCQQHDESPYTFGEGTKVEIK
notes: Fab
B4: Ab1 Fab variant H2 F58I (Fab, V domains shown)
VH: QVQLQESGPGLVKPSQTLSLTCTVSGYAFTAYNIHWVRQAPGQGLEWMGSIDPYDGGSSYNQKFKDRLTISKDTSKNQVVLTMTNMDPVDTATYYCARGWYYFDYWGHGTLVTVSS
VL: DIVMTQTPLSLPVTPGEPASISCRASKSISKYLAWYQQKPGQAPRLLIYSGSTLQSGIPPRFSGSGYGTDFTLTINNIESEDAAYYFCQQHDESPYTFGEGTKVEIK
notes: Fab
B5: Ab1 Fab variant H1 F31V (Fab, V domains shown)
VH: QVQLQESGPGLVKPSQTLSLTCTVSGYAVTAYNIHWVRQAPGQGLEWMGSFDPYDGGSSYNQKFKDRLTISKDTSKNQVVLTMTNMDPVDTATYYCARGWYYFDYWGHGTLVTVSS
VL: DIVMTQTPLSLPVTPGEPASISCRASKSISKYLAWYQQKPGQAPRLLIYSGSTLQSGIPPRFSGSGYGTDFTLTINNIESEDAAYYFCQQHDESPYTFGEGTKVEIK
notes: Fab
B6: Ab1 Fab variant H2 D76V (Fab, V domains shown)
VH: QVQLQESGPGLVKPSQTLSLTCTVSGYAFTAYNIHWVRQAPGQGLEWMGSFDPYDGGSSYNQKFKVRLTISKDTSKNQVVLTMTNMDPVDTATYYCARGWYYFDYWGHGTLVTVSS
VL: DIVMTQTPLSLPVTPGEPASISCRASKSISKYLAWYQQKPGQAPRLLIYSGSTLQSGIPPRFSGSGYGTDFTLTINNIESEDAAYYFCQQHDESPYTFGEGTKVEIK
notes: Fab
B7: Ab1 Fab variant H1 A33S (Fab, V domains shown)
VH: QVQLQESGPGLVKPSQTLSLTCTVSGYAFTSYNIHWVRQAPGQGLEWMGSFDPYDGGSSYNQKFKDRLTISKDTSKNQVVLTMTNMDPVDTATYYCARGWYYFDYWGHGTLVTVSS
VL: DIVMTQTPLSLPVTPGEPASISCRASKSISKYLAWYQQKPGQAPRLLIYSGSTLQSGIPPRFSGSGYGTDFTLTINNIESEDAAYYFCQQHDESPYTFGEGTKVEIK
notes: Fab
B8: Ab1 Fab variant H2 F58V (Fab, V domains shown)
VH: QVQLQESGPGLVKPSQTLSLTCTVSGYAFTAYNIHWVRQAPGQGLEWMGSVDPYDGGSSYNQKFKDRLTISKDTSKNQVVLTMTNMDPVDTATYYCARGWYYFDYWGHGTLVTVSS
VL: DIVMTQTPLSLPVTPGEPASISCRASKSISKYLAWYQQKPGQAPRLLIYSGSTLQSGIPPRFSGSGYGTDFTLTINNIESEDAAYYFCQQHDESPYTFGEGTKVEIK
notes: Fab
B9: Ab1 Fab variant H1 A30T (Fab, V domains shown)
VH: QVQLQESGPGLVKPSQTLSLTCTVSGYTFTAYNIHWVRQAPGQGLEWMGSFDPYDGGSSYNQKFKDRLTISKDTSKNQVVLTMTNMDPVDTATYYCARGWYYFDYWGHGTLVTVSS
VL: DIVMTQTPLSLPVTPGEPASISCRASKSISKYLAWYQQKPGQAPRLLIYSGSTLQSGIPPRFSGSGYGTDFTLTINNIESEDAAYYFCQQHDESPYTFGEGTKVEIK
notes: Fab
B10: Ab1 Fab variant H2 D65E (Fab, V domains shown)
VH: QVQLQESGPGLVKPSQTLSLTCTVSGYAFTAYNIHWVRQAPGQGLEWMGSFDPYEGGSSYNQKFKDRLTISKDTSKNQVVLTMTNMDPVDTATYYCARGWYYFDYWGHGTLVTVSS
VL: DIVMTQTPLSLPVTPGEPASISCRASKSISKYLAWYQQKPGQAPRLLIYSGSTLQSGIPPRFSGSGYGTDFTLTINNIESEDAAYYFCQQHDESPYTFGEGTKVEIK
notes: Fab
B11: Ab1 Fab variant H2 G66D (Fab, V domains shown)
VH: QVQLQESGPGLVKPSQTLSLTCTVSGYAFTAYNIHWVRQAPGQGLEWMGSFDPYDDGSSYNQKFKDRLTISKDTSKNQVVLTMTNMDPVDTATYYCARGWYYFDYWGHGTLVTVSS
VL: DIVMTQTPLSLPVTPGEPASISCRASKSISKYLAWYQQKPGQAPRLLIYSGSTLQSGIPPRFSGSGYGTDFTLTINNIESEDAAYYFCQQHDESPYTFGEGTKVEIK
notes: Fab
B12: Ab1 Fab variant H2 G66E (Fab, V domains shown)
VH: QVQLQESGPGLVKPSQTLSLTCTVSGYAFTAYNIHWVRQAPGQGLEWMGSFDPYDEGSSYNQKFKDRLTISKDTSKNQVVLTMTNMDPVDTATYYCARGWYYFDYWGHGTLVTVSS
VL: DIVMTQTPLSLPVTPGEPASISCRASKSISKYLAWYQQKPGQAPRLLIYSGSTLQSGIPPRFSGSGYGTDFTLTINNIESEDAAYYFCQQHDESPYTFGEGTKVEIK
notes: Fab
B13: Ab1 Fab variant H1 G27N (Fab, V domains shown)
VH: QVQLQESGPGLVKPSQTLSLTCTVSNYAFTAYNIHWVRQAPGQGLEWMGSFDPYDGGSSYNQKFKDRLTISKDTSKNQVVLTMTNMDPVDTATYYCARGWYYFDYWGHGTLVTVSS
VL: DIVMTQTPLSLPVTPGEPASISCRASKSISKYLAWYQQKPGQAPRLLIYSGSTLQSGIPPRFSGSGYGTDFTLTINNIESEDAAYYFCQQHDESPYTFGEGTKVEIK
notes: Fab
B14: Ab1 Fab variant H2 G66H (Fab, V domains shown)
VH: QVQLQESGPGLVKPSQTLSLTCTVSGYAFTAYNIHWVRQAPGQGLEWMGSFDPYDHGSSYNQKFKDRLTISKDTSKNQVVLTMTNMDPVDTATYYCARGWYYFDYWGHGTLVTVSS
VL: DIVMTQTPLSLPVTPGEPASISCRASKSISKYLAWYQQKPGQAPRLLIYSGSTLQSGIPPRFSGSGYGTDFTLTINNIESEDAAYYFCQQHDESPYTFGEGTKVEIK
notes: Fab
B15: Ab1 Fab variant H2 G66N (Fab, V domains shown)
VH: QVQLQESGPGLVKPSQTLSLTCTVSGYAFTAYNIHWVRQAPGQGLEWMGSFDPYDNGSSYNQKFKDRLTISKDTSKNQVVLTMTNMDPVDTATYYCARGWYYFDYWGHGTLVTVSS
VL: DIVMTQTPLSLPVTPGEPASISCRASKSISKYLAWYQQKPGQAPRLLIYSGSTLQSGIPPRFSGSGYGTDFTLTINNIESEDAAYYFCQQHDESPYTFGEGTKVEIK
notes: Fab
B16: Ab1 Fab variant H1 Y29G (Fab, V domains shown)
VH: QVQLQESGPGLVKPSQTLSLTCTVSGGAFTAYNIHWVRQAPGQGLEWMGSFDPYDGGSSYNQKFKDRLTISKDTSKNQVVLTMTNMDPVDTATYYCARGWYYFDYWGHGTLVTVSS
VL: DIVMTQTPLSLPVTPGEPASISCRASKSISKYLAWYQQKPGQAPRLLIYSGSTLQSGIPPRFSGSGYGTDFTLTINNIESEDAAYYFCQQHDESPYTFGEGTKVEIK
notes: Fab
B17: Ab1 Fab variant H1 F31I (Fab, V domains shown)
VH: QVQLQESGPGLVKPSQTLSLTCTVSGYAITAYNIHWVRQAPGQGLEWMGSFDPYDGGSSYNQKFKDRLTISKDTSKNQVVLTMTNMDPVDTATYYCARGWYYFDYWGHGTLVTVSS
VL: DIVMTQTPLSLPVTPGEPASISCRASKSISKYLAWYQQKPGQAPRLLIYSGSTLQSGIPPRFSGSGYGTDFTLTINNIESEDAAYYFCQQHDESPYTFGEGTKVEIK
notes: Fab
B18: Ab1 Fab variant H2 G67K (Fab, V domains shown)
VH: QVQLQESGPGLVKPSQTLSLTCTVSGYAFTAYNIHWVRQAPGQGLEWMGSFDPYDGKSSYNQKFKDRLTISKDTSKNQVVLTMTNMDPVDTATYYCARGWYYFDYWGHGTLVTVSS
VL: DIVMTQTPLSLPVTPGEPASISCRASKSISKYLAWYQQKPGQAPRLLIYSGSTLQSGIPPRFSGSGYGTDFTLTINNIESEDAAYYFCQQHDESPYTFGEGTKVEIK
notes: Fab
B19: Ab1 Fab variant H1 Y39W (Fab, V domains shown)
VH: QVQLQESGPGLVKPSQTLSLTCTVSGYAFTAWNIHWVRQAPGQGLEWMGSFDPYDGGSSYNQKFKDRLTISKDTSKNQVVLTMTNMDPVDTATYYCARGWYYFDYWGHGTLVTVSS
VL: DIVMTQTPLSLPVTPGEPASISCRASKSISKYLAWYQQKPGQAPRLLIYSGSTLQSGIPPRFSGSGYGTDFTLTINNIESEDAAYYFCQQHDESPYTFGEGTKVEIK
notes: Fab
B20: Ab1 Fab variant H1 A33M (Fab, V domains shown)
VH: QVQLQESGPGLVKPSQTLSLTCTVSGYAFTMYNIHWVRQAPGQGLEWMGSFDPYDGGSSYNQKFKDRLTISKDTSKNQVVLTMTNMDPVDTATYYCARGWYYFDYWGHGTLVTVSS
VL: DIVMTQTPLSLPVTPGEPASISCRASKSISKYLAWYQQKPGQAPRLLIYSGSTLQSGIPPRFSGSGYGTDFTLTINNIESEDAAYYFCQQHDESPYTFGEGTKVEIK
notes: Fab

molecular target: T1, recombinant human ROR1 extracellular domain (human, UniProt Q01973 30-406); assay: ELISA, soluble Fab on coated huROR1-ECD
T1 construct: biotinylated for the filter lifts; also called huROR1-ECD; human ROR1-ECD
T1 sequence (Q01973 30-406 limits assumed): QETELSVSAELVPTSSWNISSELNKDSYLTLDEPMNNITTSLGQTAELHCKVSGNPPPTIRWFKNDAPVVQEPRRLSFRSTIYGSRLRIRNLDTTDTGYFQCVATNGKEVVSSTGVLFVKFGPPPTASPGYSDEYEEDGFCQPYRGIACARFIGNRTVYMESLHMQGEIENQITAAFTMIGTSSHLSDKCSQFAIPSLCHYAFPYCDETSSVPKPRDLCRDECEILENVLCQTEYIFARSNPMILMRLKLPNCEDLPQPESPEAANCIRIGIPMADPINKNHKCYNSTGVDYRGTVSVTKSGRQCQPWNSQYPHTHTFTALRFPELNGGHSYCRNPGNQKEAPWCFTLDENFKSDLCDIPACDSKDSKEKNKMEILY
Protocol: The previously described filter lift assay provides a visual, qualitative assessment of antigen binding (Example 1). In order to assess the ROR1 binding activity of Ab1 Fab in a more quantitative fashion, an ELISA assay was developed. A 96-well Costar-3366 plate was coated with 50 μL/well of 1 μg/mL human ROR1-ECD (ACROBiosystems, cat. #RO1-H522y) in PBS overnight at 4° C. The plate was rinsed once with PBS-T and blocked with 100 μL/well of 5% M-P for 1 h at 25° C. Fab samples were serially diluted 3-fold using 5% M-P and 50 μL/well was incubated for 1 h at 25° C. The plate was washed three times with PBS-T and 50 μL/well anti-human kappa, and HRP conjugate (Southern Biotech, cat. #2060-05) diluted 10,000-fold in 5% M-P was added for 1 h at 25° C. In certain assays (extended wash format), the plate was placed in large volumes (up to 1 L) of PBS-T and incubated, with mixing, for 2-5 h prior to the addition of anti-human kappa, HRP conjugate. The plate was washed three times with PBS-T, and developed with 50 μL/well 1-Step Ultra TMB-ELISA (Thermo Scientific, cat. #34028). The reaction was terminated by the addition of 2 N H2504 and the A450 was determined using a Spectramax plate reader.

Question: With B1 as the binder, how does the Kd read?
Answer: 12 nM

Question: For B2, which Kd is on record?
Answer: 40 nM

Question: With B3 as the binder, how does the Kd read?
Answer: 5.7 nM

Question: B4 was tested. Which Kd did it give?
Answer: 1.8 nM

Question: Which Kd does the source give for B5 here?
Answer: 8.3 nM

Question: B6 was tested. Which Kd did it give?
Answer: 1.8 nM

Question: For B7, which Kd is on record?
Answer: 11 nM

Question: How did the Kd turn out when B8 was run?
Answer: 0.9 nM

Question: B9 was tested. Which Kd did it give?
Answer: 16 nM

Question: With B10 as the binder, how does the Kd read?
Answer: 4.9 nM

Question: For B11, which Kd is on record?
Answer: 2.2 nM

Question: With B12 as the binder, how does the Kd read?
Answer: 0.9 nM

Question: For B13, which Kd is on record?
Answer: 8.4 nM

Question: B14 was tested. Which Kd did it give?
Answer: 1.4 nM

Question: B15 was tested. Which Kd did it give?
Answer: 2.2 nM

Question: With B16 as the binder, how does the Kd read?
Answer: 7.1 nM

Question: Which Kd does the source give for B17 here?
Answer: 5.8 nM

Question: For B18, which Kd is on record?
Answer: 2.3 nM

Question: B19 was tested. Which Kd did it give?
Answer: 3.3 nM

Question: Which Kd does the source give for B20 here?
Answer: 15 nM
